According to publication PMC5544124 (Methods in enzymology, 2015):

B1: human apo-SUN2 (residues 522-717) (domain or fragment, UniProt Q9UH99 522-717, looked up)
chain: GVTEEQVHHIVKQALQRYSEDRIGLADYALESGGASVISTRCSETYETKTALLSLFGIPLWYHSQSPRVILQPDVHPGNCWAFQGPQGFAVVRLSARIRPTAVTLEHVPKALSPNSTISSAPKDFAIFGFDEDLQQEGTLLGKFTYDQDGEPIQTFHFQAPTMATYQVVELRILTNWGHPEYTCIYRFRVHGEPAH
B2: 6xHis-sfGFP-KASH2 polypeptide (KASH2 residues 6863-6885) (peptide, UniProt Q8WXH0 6863-6885, looked up)
chain: TQANNFARSFYPMLRYTNGPPPT

Tests used:
SEC = target: the molecule itself; experiment: SEC
[1] = target: B1; experiment: SEC

B1
stoichiometry N (SEC): 3

B2
binding result [1]: binds
